Experimental data from the Human Domainome abundance scans (Beltran et al. 2025).

B1: Far upstream element-binding protein 3, residues 75 to 150; numbered along this chain, Q96I24 (parent)
chain: RTVITEEFKVPDKMVGFIIGRGGEQISRIQAESGCKIQIASESSGIPERPCVLTGTPESIEQAKRLLGQIVDRCRN

Variants of: B1
Assay: abundance fitness (aPCA) (normalised: wild type 0, dead -1); higher = more abundant; growth selection in yeast, the domain comes from the species named
Settings: Homo sapiens

Abundance fitness of substitutions, site by site:
F17: D 0.081; H -0.026; A -0.013; W -0.052; I -0.05; N -0.141; E 0.025; S -0.034; L -0.065; V -0.028; R -0.018; P -0.095; Y -0.019; C -0.074; Q -0.031; G -0.06
G23: F -0.117; S -0.087; C -0.17; I -0.294; V -0.193; D -0.091; N -0.058; Q -0.042; K -0.082; H -0.077; M -0.078; E -0.037; R -0.056; Y -0.182; T -0.1
D12: R -0.1; S -0.027; A -0.024; Y -0.116; F -0.186; T -0.073; P -0.058; E -0.053; L -0.173; G -0.095; V -0.137; N -0.004; K -0.066; W -0.255; Q -0.155; M -0.144
R21: Y -0.182; K -0.025; L -0.057; Q -0.009; T 0.009; H -0.028; N 0.004; V -0.057; G -0.064; D -0.071; A 0.005; F -0.147; I -0.107; E 0.004; S 0.005; M -0.002; C -0.089; W -0.187
G20: H -0.243; A -0.118; Q -0.116; L -0.474; W -0.483; P -0.347; E -0.127; D -0.104; R -0.168; S -0.151; V -0.707; M -0.312; N -0.17; Y -0.524; T -0.228; C -0.459
G22: A -0.045; N 0.006; S -0.078; E -0.044; F -0.1; P -0.276; I -0.086; K -0.007; W -0.149; Q -0.085; T -0.09; V -0.191; Y -0.161; D 0.016; C -0.057; R -0.012
M14: R -0.423; L -0.061; H -0.089; P -0.451; V -0.159; C -0.063; F -0.127; Q -0.248; A -0.172; W -0.063; Y -0.176; N -0.101; E -0.216; G -0.311; D -0.126; K -0.345; I -0.33
I26: D -0.518; M -0.052; P -0.628; E -0.436; Y -0.288; K -0.232; F -0.173; N -0.538; R -0.251; C -0.21; H -0.144; L -0.019; Q -0.193; V -0.024; G -0.533; A -0.192; S -0.436; W -0.2; T -0.262
P11: F -0.422; T -0.136; S -0.182; H -0.217; R -0.288; Y -0.303; G -0.254; M -0.259; L -0.236; D -0.061; C -0.239; I -0.297; Q -0.235; K -0.298; E -0.109; A -0.219
I19: R -0.045; T -0.039; G -0.102; Q -0.048; P -0.25; A -0.074; E -0.081; C -0.093; N -0.001; H -0.163; M -0.062; S -0.045; V -0.033; W -0.096; K -0.057; L -0.024; D -0.071
E24: K 0.063; P -0.271; D -0.053; C 0.031; W 0.222; Q 0.055; H 0.059; R 0.113; S 0.016; N 0.052; T 0.008; L -0.112; Y 0.062; I -0.035; A -0.008; G -0.045; F -0.043; V -0.03; M -0.019
K9: A -0.006; V -0.047; G -0.006; R -0.09; W -0.053; H 0.012; E -0.044; L -0.021; I -0.106; M -0.016; N -0.109; T -0.057; Q -0.007; C -0.057; F -0.031; D -0.129; Y -0.114; S 0.025
V10: R -0.8; W -0.295; T -0.407; L -0.036; K -0.794; D -0.479; G -0.634; A -0.287; Q -0.675; P -0.514; Y -0.291; I -0.036; F -0.055; N -0.612; H -0.4; E -0.631; M -0.122
R28: F -0.218; C -0.172; E -0.079; H -0.108; D -0.077; M -0.104; N -0.125; L -0.143; A -0.024
Q25: M -0.036; Y -0.197; S -0.026; H -0.077; R 0.023; E -0.024; C -0.025; L -0.138; K -0.037; V -0.08; P -0.163; N -0.041; W -0.213; I -0.112; T -0.133; F -0.105; A -0.098; G -0.058
K13: F -0.243; L -0.198; M -0.207; V -0.263; Y 0.022; E -0.032; N 0.004; G -0.027; D -0.082; I -0.286; T -0.073; S -0.018; R -0.046; W -0.142; A -0.054; C -0.058; H 0.016; Q -0.017
I18: V -0.085; N -0.295; A -0.225; D -0.142; R -0.425; E -0.182; W -0.243; S -0.271; Y -0.261; K -0.279; H -0.279; G -0.272; Q -0.234; P -0.192; L -0.085; M -0.079; F -0.133
G16: P -0.029; Y -0.135; M -0.12; D -0.003; I -0.194; V -0.172; N -0.055; L -0.148; S -0.032; E -0.001; W -0.21; T -0.063; Q -0.027; F -0.223; K 0.018; H -0.042; R -0.037; C -0.074
S27: D -0.084; E -0.014; G 0.004; H -0.117; P -0.232; C -0.147; V -0.092; T 0.026; N 0.023; W -0.167; Y -0.241; A -0.033; F -0.153; L -0.075; I -0.187; R 0.068; Q -0.066
V15: H -0.218; Q -0.162; L -0.061; I -0.111; M -0.073; E -0.183; C -0.108; T -0.158; Y -0.141; S -0.102; A -0.059; G -0.135; D -0.324; P -0.37; K -0.119; F -0.072; N -0.349
